For assay [1], the target named is envelope glycoprotein of HIV-1 HXB2 on pseudotyped virus (HIV-1 HXB2) (UniProt P04578). In words: cell-based or functional assay.
Assay [2] addresses envelope of HIV-1 isolate CNE5 on pseudotyped virus (HIV-1 CNE5). Nature of the assay: cell-based or functional assay.

For the substance b12 (antibody), the ND50, neutralization of pseudotyped virus (luciferase) in assay [1] was determined as 0.119 µg/mL; in assay [2] it was 23.1 µg/mL.

These data come from patent US10660951.
